Experimental data as given in patent US20250027068.

Biological target: pooled human IgG

| Protein | Enzyme Activity Endpoint Assay: Fab′2 | Enzyme Activity Endpoint Assay: Fc | Enzyme Activity Endpoint Assay: IgG | Enzyme Activity Endpoint Assay: scIgG | Enzyme Activity Endpoint Assay (purified): Fab'2 | Enzyme Activity Endpoint Assay (purified): Fc | Enzyme Activity Endpoint Assay (purified): IgG | Enzyme Activity Endpoint Assay (purified): scIgG |
| --- | --- | --- | --- | --- | --- | --- | --- | --- |
| PRT-24 (protein) MANQEIRYSEVTPYHVTSVWTKGVTPPANFTQGEDVFHAPYVANQGWYDITKTFNGKDDLLCGAATAGNMLHWWFDQNKDQIERYLKEHPEKQKINFNGEQMFDVKEAIDTKDSQTDSKLFEYFKEKAFPYLSTKHLGVFPDHVLDMFINGYRLSLTNHGPTPVKEGSKDPRGGIFDAVFTRGDQSKLLTSRHDFKEKTLKEISDLIKKELTEGKALGLSHTYANVRINHVINLWGADFDSNGNLKAIYVTDSDSNASIGMKKYFVGVNSAGKVAISAKEIKEDNIGAQVLGLFTLSTGQDIWNQTN | 52 ng/µL | 131 ng/µL | 18 ng/µL | 16 ng/µL |  |  |  |  |
| PRT-258 (protein) MVTSVWTKGVTPPTNFTYGEDVLHAPYVANQGWYDITKLFNGKDDLLCGAATAGNMLHWWFDQNKEQIENYLKKHPEKQKINFNGEQMFDVKEAIDTKDSQLDSKLFEYFLEKAFPYLSTKHLGVFPDHVIDMFINGYRLSLTNHGPTPVKRGSKDPRGGIFDAVFTRGDQSKLLTNRHDFKEKTLKEISDLIKQELTEGKALGISHTYANVRINHVINLWGADFDAEGNLEAIAVTDSDSNASIGMKKYFVGVNSSGKVAISAKEIEEDNIGAQVLGLFTLSTGQDIWNQTN |  |  |  |  | 762 ng/µL | 425 ng/µL | 0 ng/µL | 0 ng/µL |
| PRT-266 (protein) MVTSVWTKGVTPPTDFIYGEDVLHAPYKAGQGWYDITKTFNGKDDLLCGAATAGNMLHWWFDQNKEQIENYLKKHPEKQKINFNGEQMFDVKEAIDTKDSQLDSKLFEYFKEKAFPNLSTKHLGVFPDHVIDMFINGYRLSLLNHGPTPVKRGSKDPRGGIFDAVFTRGDQSKLLTNRHDLKNKTLKEISDLIKQELTEGKALGISHTYANVRINHVINLWGADFDAEGNLEAIYVTDSDSNASIGMKKYFVGVNSSGKVAISAKEIEEDNIGAQVLGLFTLSTGQDIWNQTN |  |  |  |  | 698 ng/µL | 401 ng/µL | 0 ng/µL | 0 ng/µL |
| PRT-274 (protein) MVTSVWTKGVTPPTDFIYGEDVLHAPYKAGQGWYDITKTFNGKDNLLCGAATAGNMLHWWFDQNKEQIENYLKKHPEKQKIIFNNQELFDLKAAIDTKDSQLDSKLFDYFKEKAFPNLSTKHLGVFPDHVIDMFINGYRLSLLNHGPTPVKRGSKDKRGGIFDAVFTRGVQSKLLTNRHDLKNKTLKEISDLIKQELTEGKALGISHTYANVRINHVINLWGADFDAEGNLEAIYVTDSDTNPSIGMKKYFVGVNSSGKVAISAKEIEEDNIGAQVLGLFTLSTGQDIWNQTN |  |  |  |  | 1040 ng/µL | 425 ng/µL | 0 ng/µL | 0 ng/µL |
| PRT-282 (protein) MVTSVWTKGVTPPAKFTQGEDVFHAPYVANQGWYDITKTFNGKDDLLCGAATAGNMLHWWFDQNKEKIEAYLKKHPDKQKIMFGDQELLDVRKVINTKGDQTNSELFNYFRDKAFPNLSARRIGVMPDLVLDMFINGYYLNVYKTQTTDVNRTYQEKDRRGGIFDAVFTRGDQSKLLTSRHDFKEKNLKEISDLIKKELTEGKALGLSHTYANVRLNHVINLWGADFDSNGNLKAIYVTDSDSNASIGMKKYFVGVNSSGKVAISAKEIKEDNIGAQVLGLFTLSTGQDSWNQTN |  |  |  |  | 69 ng/µL | 150 ng/µL | 34 ng/µL | 413 ng/µL |
| PRT-290 (protein) MVTSVWTKGVTPPADFTQGEDVFHAPYVANQGWYDITKTFNGKDDLLCGAATAGNMLHWWFDQNKEYIEAYLKKHPEKQKIMFGDQELLDVRKAINTKGSQKNSELFNYFRDKAFPNLSARRLGVMPDLVLDMFINGYYLNVTKTQTTDVNRTYQEKDKRGGIFDAVFTRGDQSKLLTSRHDFKEKGLKEISDLIKQELTEGKALGLSHTYANVRIGHVINLWGADFDSDGNLKAIYVTDSDSNASIGMKKYFVGVNSSGKVAISAKEIKEDNIGAQVLGLFTLSTGQDIWNQTN |  |  |  |  | 191 ng/µL | 151 ng/µL | 179 ng/µL | 0 ng/µL |
| PRT-298 (protein) MVTSVWTKGVTPPTDFIKGEDVFHAPYKAGQGWYDITKTFNGKDDLLCGAATAGNMLHWWFDQNKEYIEAYLKKHPEKQKIMFGDQELLDVRKAINTKGSQKNSELFNYFRDKAFPNLSARRLGVMPDLVLDMFINGYYLNVTKTQTTDVNRTYQEKDKRGGIFDAVFTRGDQSKLLTSRHDFKEKGLKEISDLIKQELTEGKALGLSHTYANVGINHVINLWGADFDSDGNLKAIYVTDSDSNASIGMKKYFVGVNSSGKVAISAKEIKEDNIGAQVLGLFTLSTGQDIWNQTN |  |  |  |  | 494 ng/µL | 240 ng/µL | 147 ng/µL | 35 ng/µL |
| PRT-306 (protein) MVTSVWTKGVTPPTDFIKGEDVFHAPYDAGQGWYDITKEFNGKDDLLCGAATAGNMLHWWFDQNKEYIEAYLKKHPEKQKIMFGDQELLDVRKAINTKGSQKNSELFNYFRDKAFPNLSARRLGVMPDLVLDMFINGYYLNVTKTQTTDVNRTYQEKDKRGGIFDAVFTRGDQSKLLTSRHDFKEKGLKEISDLIKQELTEGKALGLSHTYANVRIGHVINLWGADFDSDGNLKAIYVTDSDSNASIGMKKYGVGVNSAGKVAISAKEIKEDNIGAQVLGLFTLSTGQDIWNQTN |  |  |  |  | 467 ng/µL | 336 ng/µL | 341 ng/µL | 0 ng/µL |
| PRT-314 (protein) MQITSVWTKGVTPLTPEQFRENNEDVIHAPYLAHQGWYDITKAFDGKDNLLCGAATAGNMLHWWFDQNKTEIEAYLSKHPEKQKIIFGNQELFDLKAAIDTKDSQTNSQLFDYFRDKAFPNLSARQLGVMPDLVLDMFINGYYLNVGKTQSTDVNRPYQDKDKRGGIFDAVFTRGDQTTLLTARHDLKNKGLNDISTIIKQELTEGRALALSHTYANVSISHVINLWGADFNAEGELEAIYVTDSDANPSIGMKKYFVGRNAHGHVAISAKKIEGENIGAQVLGLFTLSSGKDQWQKLS |  |  |  |  | 599 ng/µL | 286 ng/µL | 101 ng/µL | 174 ng/µL |
| PRT-322 (protein) MTITSVWTKGVTPPTPEDFRENNEDVLHAPYVANQGWYDITKTFDGKDNLLCGAATAGNMLHWWFDQNKEEIERYLKKHPEKQKIIFNNQELFDVKAAIDTKDSQTNSKLFDYFRDKAFPNLSARQLGVMPDLVLDMFINGYYLNLGKTQSTDVNRPYQDKDKRGGIFDAVFTRGDQTTLLTARHDLKNKGLNEISDLIKQELTEGKALALSHTYANVRINHVINLWGADFDAEGNLIAIYVTDSDANASIGMKKYFVGRNANGKVAISAKKIEGDNIGAQVLGLFTLSTGQDQWQKLS |  |  |  |  | 506 ng/µL | 381 ng/µL | 387 ng/µL | 0 ng/µL |
